From FireProtDB (doi:10.1016/s0022-2836(02)00915-4)
Where “and” joins values, the source holds several entries; their conditions need not be identical. Equal entries are not always repeated.

B1: Protein GrpE, P09372 (parent)
chain: MSSKEQKTPEGQAPEEIIMDQHEEIEAVEPEASAEQVDPRDEKVANLEAQLAEAQTRERDGILRVKAEMENLRRRTELDIEKAHKFALEKFINELLPVIDSLDRALEVADKANPDMSAMVEGIELTLKSMLDVVRKFGVEVIAETNVPLDPNVHQAIAMVESDDVAPGNVLGIMQKGYTLNGRTIRAAMVTVAKAKA

Variants of: B1
Conditions: Escherichia coli (strain K12); pH 6.8; Thermal; CD; potassium phosphate 10 mM; transition: 3; reversible: yes; structure 1DKG; whole UniProt chain shown

Variant | Tm [°C] | change of melting temperature, mutant - wild type (higher = more stable)
E53G | 81 | -2 °C
G122D | – | -3 °C and 0 °C and -2 °C
